B1: Serine/threonine-protein kinase LATS1, residues 98 to 141; numbered along this chain, O95835 (parent)
chain: TSEVNPQMLQDLQAAGFDEDMVIQALQKTNNRSIEAAIEFISKM
B2: Histone H1t, residues 44 to 112; numbered along this chain, P22492 (parent)
chain: VSKLITEALSVSQERVGMSLVALKKALAAAGYDVEKNNSRIKLSLKSLVNKGILVQTRGTGASGSFKLS

Variants of: B1
Assay: abundance fitness (aPCA) (normalised: wild type 0, dead -1); higher = more abundant; growth selection in yeast, the domain comes from the species named
Conditions: Homo sapiens

Abundance fitness of substitutions, site by site:
A36: Y -0.632 | H -0.206 | Q -0.267 | M -0.316 | R -0.404 | L -0.388 | F -0.77 | P -0.36 | W -0.825 | S -0.073 | T -0.258 | K -0.21 | N -0.327 | G -0.195 | C -0.169 | D -0.068
E35: K -0.169 | V -0.468 | G -0.173 | W -0.473 | S -0.115 | N -0.204 | C -0.485 | P -0.164 | T -0.158 | D 0.005 | H -0.151 | Q -0.141 | F -0.468 | L -0.541 | M -0.307 | R -0.263
N30: T -0.533 | W -1.07 | S -0.107 | V -1.1
I38: V -0.024 | P -0.147 | Q -0.021 | K 0.055 | H -0.203 | C -0.119 | A -0.048 | F -0.42 | R 0.003 | M -0.016 | G -0.169 | E -0.007 | W -0.339 | S -0.113 | L -0.078
A37: Q -0.428 | T -0.391 | R -0.649 | K -1.03 | H -0.621 | S -0.441 | W -1.17 | V -0.453 | C -0.376 | N -0.446 | P -0.42 | L -0.728 | Y -0.762 | D -0.43 | G -0.401
M44: C -0.037 | S -0.04 | L -0.11 | A -0.053 | E 0.052 | G -0.063 | Q 0.055 | W -0.232 | V 0.011 | R -0.057 | P -0.148
F40: V -0.097 | Q -0.068 | S -0.131 | P -0.157 | A -0.018 | C -0.016 | R -0.248 | T -0.16 | D -0.055 | E 0.103 | G -0.163 | W 0.075 | I -0.171 | M -0.042 | K -0.177
I41: F -0.525 | Y -0.434 | C -0.225 | M 0.046 | H -0.272 | V -0.411 | A -0.282 | D -0.11 | L -0.046 | S -0.217 | W -0.648 | G -0.282 | N -0.429 | K -0.255 | Q -0.286 | R -0.361 | P -0.232 | E -0.165
R32: W -0.484 | K 0.238 | T -0.004 | A 0.089 | V 0.017 | E 0.095 | D -0.26 | Y -0.222 | P -0.434 | G -0.185 | M -0.107 | C 0.007 | H 0.045
S42: R 0.048 | P -0.401 | H 0.054 | G -0.002 | V -0.219 | T 0.103 | C -0.258 | D 0.033 | Y -0.142 | F -0.229 | L -0.248 | Q 0.127 | W -0.14 | A -0.023 | K 0.055 | E 0.136
N31: G -0.155 | K -0.699 | T -0.645 | P -0.459 | R -0.845 | E -0.253 | A -0.416 | I -0.577 | S 0.049 | Q -0.63 | C -0.139 | W -0.557 | D -0.506 | M -0.484 | L -0.75
E39: K -0.115 | Q -0.166 | M -0.286 | G -0.217 | N -0.111 | D -0.113 | H -0.084 | R -0.224 | V -0.717 | S -0.146 | P -0.483 | F -0.884 | W -0.728 | T -0.237 | C -0.361 | A -0.103
I34: H -0.077 | S -0.189 | Y -0.468 | N -0.123 | C -0.02 | T 0.046 | L -0.005 | Q -0.09 | M 0.04 | G -0.266 | F -0.192 | D -0.257 | A -0.043 | E -0.068 | W -0.505 | P -0.051 | V 0.026
S33: Q -1.02 | M -0.96 | F -0.628 | H -0.934 | P -0.627 | E -0.665 | K -0.528 | V -1.29 | R -0.907 | T -0.555 | D -0.4 | L -1.25 | A -0.797 | C -0.467 | N -0.56 | G -0.136 | W -1.12 | Y -0.735
K43: V -0.135 | T -0.004 | N -0.038 | P -0.333 | I -0.435 | E 0.133 | Y -0.194 | L -0.117 | R -0.027 | M -0.071 | A 0.034 | D -0.03 | H 0.169 | S -0.035 | G -0.036 | C -0.156

Variants of: B2
Assay: as above
Conditions: Homo sapiens

Abundance fitness: each site, then its substitutions
L9: C -0.401
S2: F -0.383 | I -0.234 | L -0.398 | D 0.251 | V -0.652 | E 0.566 | A -0.404 | K 0.251 | C -0.438 | P -0.456 | Y -0.185 | H -0.474 | N 0.051 | Q -0.344 | M -0.316 | T -0.145
V1: A -0.12 | F -0.054 | H -0.877 | P 0.071 | K -0.403 | S -0.512 | M -0.16 | N -0.557 | I 0.005 | L -0.536 | T -0.337 | Y -0.269
K3: W -0.691 | L -0.474 | R -0.251 | D -0.144 | N -0.139 | E 0.001 | G -0.45 | C -0.411 | S -0.297 | F -0.595 | M -0.583 | V -0.431 | I -0.656 | Y -0.717
T6: A -0.536 | N -0.031 | S -0.168 | W -0.737 | M -0.098 | H -0.05 | P -1.24 | K 0.092 | Q -0.002 | R -0.04 | G -0.629 | D -0.299 | V -0.153 | Y -0.298 | I -0.071 | F -0.578 | E -0.112 | L -0.222 | C -0.181
L4: W -0.506
I5: T -0.985 | E -1.13 | R -1.24 | C -0.415 | D -1.04 | F -0.372 | N -0.664 | W -0.46 | Q -1.28 | V -0.267 | M -0.33 | A -0.705 | L -0.244 | H -1.46 | G -0.942 | P -1.16
A8: K -0.411 | H -0.324 | I -0.032 | P -1.06 | F -0.217 | E -0.719 | C -0.137 | N -0.531 | M -0.163 | W -0.026 | T -0.447 | G -0.522 | D -1.13 | Q -0.584 | R -0.335 | L -0.275 | Y -0.345 | S -0.42
E7: M -0.63 | N -0.118 | L -0.89 | S -0.497 | A -0.996 | Q -0.429 | G -1.05 | F -0.808 | K -0.12 | C -0.493 | W -0.275 | I -0.739 | Y -0.589 | R 0.032 | V -0.826 | D -0.101
